Experimental data: article PMC12326332, “Tuning ubiquitin transfer by RING E3 ubiquitin ligases through the linchpin residue” (Life Science Alliance, 2025)

Target: T1, mature human SMAC^56-C (human, UniProt Q9NR28 56-239)
T1 construct: SMAC (DIABLO), mature form starting from Ala56 to the C terminus; expressed as a SUMO fusion in pRSF-DUET1 so that the N terminus starts from Ala56; also called SMAC^56-C,Strep-II; mature SMAC; source: E. coli BL21 (DE3) Rosetta 2 pLysS, purified (His-TRAP, Superdex 75); not shown: SUMO, N-terminal, cleaved
T1 sequence (looked up): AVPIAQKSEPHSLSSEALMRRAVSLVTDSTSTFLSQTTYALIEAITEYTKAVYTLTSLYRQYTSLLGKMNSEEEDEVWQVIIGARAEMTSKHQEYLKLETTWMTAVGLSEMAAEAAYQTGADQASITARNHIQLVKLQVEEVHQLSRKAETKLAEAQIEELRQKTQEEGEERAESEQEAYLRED
Assay: SEC; gel filtration elution profiles of XIAP-RNF38^WT, SMAC^56-C and the E3/SMAC mixture
Conditions: both partners purified

binding result: binds
B1: XIAP^145-430-RNF38^389-C (other, UniProt P98170 145-430, looked up)
chain: QVVDISDTIYPRNPAMYSEEARLKSFQNWPDYAHLTPRELASAGLYYTGIGDQVQCFCCGGKLKNWEPCDRAWSEHRRHFPNCFFVLGRNLNIRSESDAVSSDRNFPNSTNLPRNPSMADYEARIFTFGTWIYSVNKEQLARAGFYALGEGDKVKCFHCGGGLTDWKPSEDPWEQHAKWYPGCKYLLEQKGQEYINNIHLTHSLEECLVRTTEKTPSLTRRIDDTIFQNPMVQEAIRMGFSFKDIKKIMEEKIQISGSNYKSLEVLVADLVNAQKDSMQDESSQTSTKADIEQLPSYRFNPNNHQSEQTLCVVCMCDFESRQLLRVLPCNHEFHAKCVDKWLKANRTCPICRADASEVHRDSE
notes: XIAP (BIRC4) residues 145-430 with the substrate-recruiting BIR2 and BIR3 domains; RNF38 RING domain, residue 389 to the C terminus; no linker between the two parts is told; also called XIAP-RNF38; XIAP-RNF38^WT; source: E. coli BL21 (DE3) Rosetta 2 pLysS, purified
